Earlier results, collected in patent US9486409B2, “Peptide nanoparticles and uses therefor” (Anterios, Inc., priority 2006, dated 2016).

Settings: unmodified peptide, prior studies (Katayama et al.)

KTTKS (peptide that may promote extra-cellular matrix production) [unmodified pentapeptide known to promote extra-cellular matrix production]
penetration of intact skin: cannot penetrate the intact skin without chemical modification
